The record followed here is patent US8637024 (dated 2014).

The experiment has as its target human soluble CD4 (sCD4) (human, UniProt P01730). In words: competition ELISA.

B1: m36 (antibody, V domains shown)
VH: QVQLVQSGGGLVQPGGSLRLSCAASAFDFSDYEMSWVRQAPGKGLEWIGEINDSGNTIYNPSLKSRVTISRDNSKNTLYLQMNTLRAEDTAIYYCAIYGGNSGGEYWGQGTLVTVSS
For the molecule B1, the binding result is reported as “no binding”.
